1 molecule from publication PMC9200632 (2022) can be followed below.

The experiment deals with T1, MBP–FlaA (C. jejuni flagellin FlaA, amino acids 177–482) (C. jejuni, biotinylated (EZ-Link NGS-PEG4-Biotin kit) in the BLI).
T1 chain: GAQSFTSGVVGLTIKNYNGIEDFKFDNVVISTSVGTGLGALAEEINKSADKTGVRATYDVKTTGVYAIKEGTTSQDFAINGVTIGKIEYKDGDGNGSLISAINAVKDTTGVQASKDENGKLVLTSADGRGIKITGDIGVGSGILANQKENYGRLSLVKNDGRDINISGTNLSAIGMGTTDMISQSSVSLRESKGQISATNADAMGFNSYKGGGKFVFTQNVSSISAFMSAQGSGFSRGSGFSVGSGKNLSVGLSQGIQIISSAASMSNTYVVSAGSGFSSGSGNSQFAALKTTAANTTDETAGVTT
Nature of the experiment: BLI.

B1: aa682 (VHH)
VHH: QVQLVESGGGLVQAGGSLRVSCTASVSTFSINALGWYRQAPGKARELVAAIGSDGTVYYTDSVKGRFTISRDNAKNTVSLQMSSLKPEDTAVYYCNAAGKRIGSDGSIWFAVASFGSWGQGTQVTVSS
Turning to B1, the koff (commonly the first-order rate constant of dissociation) stood at 0.024 s⁻¹.
